Reference: the supplement of paper PMC7877785
± gives the uncertainty stated by the source.

Assay: self-splicing fitness, log relative to wild type (ln ratio); higher = more splicing; Tetrahymena group I intron in knt gene, E. coli kanamycin selection, DiMSum; sequences stand for … in CUCUCU…GGAGGGAAAAGUUAUCAGGCAUGCACCUGGUAGCUAGUCUUUAAACCAAUAGAUUGCAUCGGUUUAAAAGGCAAGACCGUCAAAUUGCGGGAAAGGGGUCAACAGCCGUUCAGUACCAAGUCUCAGGGGAAACUUUGAGAUGGCCUUGCAAAGGGUAUGGUAAUAAGCUGACGGACAUGGUCCUAACCACGCAGCCAAGUCCUAAGUCAACAGAUCUUCUGUUGAUAUGGAUGCAGUUCACAGACUAAAUGUCGGUCGGGGAAGAUGUAUUCUUCUCAUAAGAUAUAGUCGGACCUCUCCUUAAUGGGAGCUAGCGGAUGAAGUGAUGCAACACUGGAGCCGCUGGGAACUAAUUUGUAUGCGAAAGUAUAUUGAUUAGUUUUGGAGUACUCGUGGUCG
Outline: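 Six replicate transformations of E. coli BL21(DE3) with a pET-22b(+) library were grown overnight at 37°C or 30°C. The library randomised all eight P1ex-region intron nucleotides, the intron lying in the knt kanamycin-resistance gene, and plates were LB agar with or without 25 μg/mL kanamycin plus 100 μg/mL carbenicillin, 50 μM IPTG and 0.2% rhamnose. Pooled colonies were amplicon-sequenced on an Illumina HiSeq 2500, and fitness is the DiMSum error-weighted combination of wild-type-normalised replicate fold changes, kanamycin versus none.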

CCGAAGCAAUAUUACGGUUC
self-splicing fitness (ln) (30 °C): -3.74 ± 0.26
self-splicing fitness (ln) (37 °C): -2.66 ± 0.2

GGGAAGCAAUAUUACGCGCU
self-splicing fitness (ln) (30 °C): -2.66 ± 0.28
self-splicing fitness (ln) (37 °C): -0.954 ± 0.27

UUUGAGCAAUAUUACGUUGU
self-splicing fitness (ln) (30 °C): -2.68 ± 0.21
self-splicing fitness (ln) (37 °C): -2.46 ± 0.28

GUAUAGCAAUAUUACGGAGU
self-splicing fitness (ln) (30 °C): -3.8 ± 0.3
self-splicing fitness (ln) (37 °C): -3.49 ± 0.29

AGCAAGCAAUAUUACGAUGA
self-splicing fitness (ln) (30 °C): -1.33 ± 0.085
self-splicing fitness (ln) (37 °C): -0.569 ± 0.088

GCGAAGCAAUAUUACGUGAG
self-splicing fitness (ln) (30 °C): -1.89 ± 0.091
self-splicing fitness (ln) (37 °C): -2.01 ± 0.1

GCAUAGCAAUAUUACGUUCG
self-splicing fitness (ln) (30 °C): -1.43 ± 0.08
self-splicing fitness (ln) (37 °C): 0.166 ± 0.09

CUUUAGCAAUAUUACGGCGU
self-splicing fitness (ln) (30 °C): -3.31 ± 0.47
self-splicing fitness (ln) (37 °C): -1.89 ± 0.26

UCUCAGCAAUAUUACGGAAC
self-splicing fitness (ln) (30 °C): -3.48 ± 0.41

UACGAGCAAUAUUACGCGCC
self-splicing fitness (ln) (30 °C): -2.33 ± 0.42

UAGGAGCAAUAUUACGCAGC
self-splicing fitness (ln) (37 °C): -2.79 ± 0.36

CACAAGCAAUAUUACGCAUC
self-splicing fitness (ln) (30 °C): -3.19 ± 0.18
self-splicing fitness (ln) (37 °C): -2.29 ± 0.18

UCCCAGCAAUAUUACGACAU
self-splicing fitness (ln) (30 °C): -3.293 ± 0.018
self-splicing fitness (ln) (37 °C): -2.13 ± 0.035

GCAUAGCAAUAUUACGCCAU
self-splicing fitness (ln) (30 °C): -4.39 ± 0.46
self-splicing fitness (ln) (37 °C): -2.23 ± 0.28

CGAUAGCAAUAUUACGAUAG
self-splicing fitness (ln) (30 °C): -0.572 ± 0.089
self-splicing fitness (ln) (37 °C): -0.275 ± 0.1

AAGCAGCAAUAUUACGCAUC
self-splicing fitness (ln) (30 °C): -2.72 ± 0.18

CCGGAGCAAUAUUACGAGAG
self-splicing fitness (ln) (30 °C): -2.13 ± 0.22
self-splicing fitness (ln) (37 °C): -2.33 ± 0.22

GAGGAGCAAUAUUACGUCGU
self-splicing fitness (ln) (30 °C): -0.318 ± 0.28
self-splicing fitness (ln) (37 °C): -2.14 ± 0.34

GGAAAGCAAUAUUACGCAUU
self-splicing fitness (ln) (30 °C): -2.5 ± 0.12
self-splicing fitness (ln) (37 °C): -2.55 ± 0.25

GUGAAGCAAUAUUACGUAGG
self-splicing fitness (ln) (30 °C): -2.29 ± 0.14
self-splicing fitness (ln) (37 °C): -0.218 ± 0.15

GCUUAGCAAUAUUACGGCAG
self-splicing fitness (ln) (30 °C): -4.61 ± 0.46
self-splicing fitness (ln) (37 °C): -2.63 ± 0.34

ACUAAGCAAUAUUACGGUAG
self-splicing fitness (ln) (30 °C): -4.09 ± 0.2
self-splicing fitness (ln) (37 °C): -3.56 ± 0.2

AUAAAGCAAUAUUACGAGUU
self-splicing fitness (ln) (30 °C): -1.9 ± 0.081
self-splicing fitness (ln) (37 °C): -0.509 ± 0.085

ACCCAGCAAUAUUACGACGC
self-splicing fitness (ln) (30 °C): 0.24 ± 0.085
self-splicing fitness (ln) (37 °C): 0.483 ± 0.11

GCCGAGCAAUAUUACGAUCU
self-splicing fitness (ln) (37 °C): -0.908 ± 0.4

ACCAAGCAAUAUUACGGAAC
self-splicing fitness (ln) (30 °C): -3.63 ± 0.21
self-splicing fitness (ln) (37 °C): -1.99 ± 0.2

UAUAAGCAAUAUUACGCCUU
self-splicing fitness (ln) (30 °C): -1.31 ± 0.1
self-splicing fitness (ln) (37 °C): -0.179 ± 0.12

UUUAAGCAAUAUUACGCCUC
self-splicing fitness (ln) (37 °C): -0.852 ± 0.36

GGGUAGCAAUAUUACGGACG
self-splicing fitness (ln) (30 °C): -1.74 ± 0.13
self-splicing fitness (ln) (37 °C): -2.1 ± 0.2

UUCAAGCAAUAUUACGAGCU
self-splicing fitness (ln) (30 °C): -2.99 ± 0.23
self-splicing fitness (ln) (37 °C): -1.33 ± 0.18

CACCAGCAAUAUUACGUGAC
self-splicing fitness (ln) (30 °C): -4.86 ± 0.26
self-splicing fitness (ln) (37 °C): -2.34 ± 0.21

CCGCAGCAAUAUUACGGGAA
self-splicing fitness (ln) (30 °C): -4.03 ± 0.28
self-splicing fitness (ln) (37 °C): -2.71 ± 0.23

CAACAGCAAUAUUACGUGUC
self-splicing fitness (ln) (30 °C): -2.82 ± 0.13
self-splicing fitness (ln) (37 °C): -2.04 ± 0.14

UUACAGCAAUAUUACGUAAC
self-splicing fitness (ln) (30 °C): -3.72 ± 0.18
self-splicing fitness (ln) (37 °C): -3.25 ± 0.24

CAGUAGCAAUAUUACGCAUG
self-splicing fitness (ln) (30 °C): -2.31 ± 0.2
self-splicing fitness (ln) (37 °C): -2.46 ± 0.29

UAUCAGCAAUAUUACGCGUG
self-splicing fitness (ln) (30 °C): -0.43 ± 0.062
self-splicing fitness (ln) (37 °C): -0.319 ± 0.075

CAGCAGCAAUAUUACGUACC
self-splicing fitness (ln) (30 °C): -3.85 ± 0.16
self-splicing fitness (ln) (37 °C): -2.46 ± 0.16

AAUGAGCAAUAUUACGCAAG
self-splicing fitness (ln) (30 °C): -3.81 ± 0.27
self-splicing fitness (ln) (37 °C): -2.45 ± 0.38

UACAAGCAAUAUUACGGGAU
self-splicing fitness (ln) (30 °C): -3.65 ± 0.17
self-splicing fitness (ln) (37 °C): -1.39 ± 0.11

UAAUAGCAAUAUUACGAGCA
self-splicing fitness (ln) (30 °C): -1.64 ± 0.16
self-splicing fitness (ln) (37 °C): -1.21 ± 0.16

UGACAGCAAUAUUACGCUCA
self-splicing fitness (ln) (30 °C): -0.115 ± 0.11
self-splicing fitness (ln) (37 °C): -0.155 ± 0.1

UGCCAGCAAUAUUACGGUGA
self-splicing fitness (ln) (30 °C): -0.97 ± 0.075
self-splicing fitness (ln) (37 °C): 0.0352 ± 0.092

GUGAAGCAAUAUUACGAGUA
self-splicing fitness (ln) (30 °C): -1.84 ± 0.13
self-splicing fitness (ln) (37 °C): -1.47 ± 0.16

CCGAAGCAAUAUUACGAAGG
self-splicing fitness (ln) (30 °C): -4.66 ± 0.46
self-splicing fitness (ln) (37 °C): -2.15 ± 0.27

CCACAGCAAUAUUACGCACU
self-splicing fitness (ln) (30 °C): -3.41 ± 0.1
self-splicing fitness (ln) (37 °C): -2.27 ± 0.12

CUACAGCAAUAUUACGAUGG
self-splicing fitness (ln) (30 °C): -1.44 ± 0.053
self-splicing fitness (ln) (37 °C): -0.971 ± 0.077

CAGCAGCAAUAUUACGCUCG
self-splicing fitness (ln) (30 °C): -1.95 ± 0.16
self-splicing fitness (ln) (37 °C): -0.385 ± 0.21

AGGAAGCAAUAUUACGCGAG
self-splicing fitness (ln) (30 °C): -1.55 ± 0.13
self-splicing fitness (ln) (37 °C): -1.31 ± 0.15

CCCUAGCAAUAUUACGGCUC
self-splicing fitness (ln) (30 °C): -4.27 ± 0.23
self-splicing fitness (ln) (37 °C): -1.75 ± 0.14

CUGAAGCAAUAUUACGGUAC
self-splicing fitness (ln) (30 °C): -2.82 ± 0.18
self-splicing fitness (ln) (37 °C): -2.71 ± 0.26

GCUCAGCAAUAUUACGUUAG
self-splicing fitness (ln) (30 °C): -2.79 ± 0.13
self-splicing fitness (ln) (37 °C): -0.765 ± 0.12

CUGUAGCAAUAUUACGACGC
self-splicing fitness (ln) (30 °C): -2.3 ± 0.35
self-splicing fitness (ln) (37 °C): -2.79 ± 0.27

GAAUAGCAAUAUUACGCACC
self-splicing fitness (ln) (30 °C): -1.19 ± 0.23
self-splicing fitness (ln) (37 °C): 0.185 ± 0.32

AUUGAGCAAUAUUACGAUCU
self-splicing fitness (ln) (30 °C): -1.28 ± 0.11
self-splicing fitness (ln) (37 °C): -0.471 ± 0.14

UUUCAGCAAUAUUACGAGCG
self-splicing fitness (ln) (30 °C): -0.768 ± 0.09
self-splicing fitness (ln) (37 °C): -0.289 ± 0.11

UAUAAGCAAUAUUACGACAC
self-splicing fitness (ln) (30 °C): -1.87 ± 0.21
self-splicing fitness (ln) (37 °C): -1.05 ± 0.26

AAAUAGCAAUAUUACGCGGG
self-splicing fitness (ln) (30 °C): -3.02 ± 0.19
self-splicing fitness (ln) (37 °C): -1.23 ± 0.12

CAUAAGCAAUAUUACGGUCC
self-splicing fitness (ln) (30 °C): -3.2 ± 0.25
self-splicing fitness (ln) (37 °C): -2.28 ± 0.31

AGCCAGCAAUAUUACGCGGG
self-splicing fitness (ln) (30 °C): -3.29 ± 0.19
self-splicing fitness (ln) (37 °C): -2.91 ± 0.28

UCAUAGCAAUAUUACGAGCC
self-splicing fitness (ln) (37 °C): -1.76 ± 0.49

UGGUAGCAAUAUUACGCUUG
self-splicing fitness (ln) (30 °C): -0.988 ± 0.092
self-splicing fitness (ln) (37 °C): -0.402 ± 0.11

CUAUAGCAAUAUUACGGACG
self-splicing fitness (ln) (30 °C): 0.217 ± 0.093
self-splicing fitness (ln) (37 °C): 0.437 ± 0.12

GGAUAGCAAUAUUACGAGAG
self-splicing fitness (ln) (30 °C): -1.8 ± 0.23
self-splicing fitness (ln) (37 °C): -3.09 ± 0.47

UAAUAGCAAUAUUACGGGCC
self-splicing fitness (ln) (30 °C): -3.78 ± 0.44
self-splicing fitness (ln) (37 °C): -2.52 ± 0.48

CUUUAGCAAUAUUACGUCGC
self-splicing fitness (ln) (37 °C): -1.58 ± 0.34

CAACAGCAAUAUUACGAAAG
self-splicing fitness (ln) (30 °C): -0.908 ± 0.053
self-splicing fitness (ln) (37 °C): 0.316 ± 0.079

AAGUAGCAAUAUUACGCAGA
self-splicing fitness (ln) (30 °C): -4.11 ± 0.24
self-splicing fitness (ln) (37 °C): -1.54 ± 0.1

AAGAAGCAAUAUUACGUCUG
self-splicing fitness (ln) (30 °C): -0.345 ± 0.054
self-splicing fitness (ln) (37 °C): 0.0995 ± 0.071

CGAAAGCAAUAUUACGAAGA
self-splicing fitness (ln) (30 °C): -2.12 ± 0.16
self-splicing fitness (ln) (37 °C): -0.849 ± 0.13

GGUGAGCAAUAUUACGACCA
self-splicing fitness (ln) (30 °C): -1.21 ± 0.25
self-splicing fitness (ln) (37 °C): -0.616 ± 0.31

UAGAAGCAAUAUUACGGGCU
self-splicing fitness (ln) (30 °C): -3.1 ± 0.23
self-splicing fitness (ln) (37 °C): -3.1 ± 0.26

ACUAAGCAAUAUUACGGGGG
self-splicing fitness (ln) (30 °C): -3.59 ± 0.29
self-splicing fitness (ln) (37 °C): -1.26 ± 0.17

AAAUAGCAAUAUUACGUAUA
self-splicing fitness (ln) (30 °C): -1.63 ± 0.12
self-splicing fitness (ln) (37 °C): -0.558 ± 0.12

AAAGAGCAAUAUUACGUUUG
self-splicing fitness (ln) (30 °C): -2.74 ± 0.21
self-splicing fitness (ln) (37 °C): -1.77 ± 0.22

ACUCAGCAAUAUUACGAAAU
self-splicing fitness (ln) (30 °C): -1.11 ± 0.091
self-splicing fitness (ln) (37 °C): 0.0403 ± 0.099

GAGCAGCAAUAUUACGCCCU
self-splicing fitness (ln) (30 °C): -0.964 ± 0.31

ACUUAGCAAUAUUACGGCUU
self-splicing fitness (ln) (30 °C): -0.359 ± 0.14
self-splicing fitness (ln) (37 °C): -0.614 ± 0.19

CAAUAGCAAUAUUACGAAGA
self-splicing fitness (ln) (30 °C): -3.96 ± 0.39
self-splicing fitness (ln) (37 °C): -1.31 ± 0.2
